Reference: publication PMC4360532
pKd: −log10 of the molar value.

Test system: Rev full-length wild-type (HIV-1 (HXB3?))
Assay: EMSA
Conditions: 10 mM HEPES pH 7.5, 0.1 M KCl (0.3 M KCl and no tRNA for SYBR Green II assay), 1 mM MgCl2, 0.5 mM EDTA, 2 mM DTT, 10% glycerol, 50 ug/ml yeast tRNA, 0.2 mg/ml …

Q: How did the pKd turn out when RRE full-length 234 nt was run?
A: The pKd was 9.84.
